{"source": "patent US20250121089A1", "about": "“COMPOSITIONS AND METHODS FOR ENHANCING THE EFFECT OF A TROP-2 SPECIFIC THERAPEUTIC” (priority 2023, published 2025)", "key": {"[1]": {"tested_on": "4T1 cells", "experiment": "Overall effect (cytotoxic x clonogenic effect), TTFields with or without Sacituzumab Govitecan", "format": "cell-based, mouse", "settings": "concomitant with TTFields 1.62 V/cm RMS, 150 kHz, 72 h; re-plated, grown 7-14 days; FIG. 10", "description": "(§1) Tests were performed on three different cell types: A549, A2780 and 4T1. A549 cells are adenocarcinomec human alveolar basal epithelial cells. A2780 is a human ovarian cancer cell line. 4T1 is a breast cancer cell line derived from the mammary gland tissue of a mouse BALB/c strain.\n(§2) Mammary carcinoma cells 4T1 were treated for 72 h with TTFields at an intensity of 1.62 V/cm RMS and a frequency of 150 kHz using the Inovitro system. TTFields were applied to the cells in the absence or presence of the Trop2 inhibitor Sacituzumab Govitecan. Treated cells were harvested, re-plated, and grown for an additional 7-14 days. Colonies were stained (0.5% crystal violet solution), counted, and clonogenic effect was calculated relative to control. Overall effect was calculated by multiplying the cytotoxic and clonogenic effects."}, "[2]": {"tested_on": "A549 cells", "experiment": "Cytotoxic effect (cell count by flow cytometer), TTFields with or without Sacituzumab Govitecan", "format": "cell-based, human", "settings": "concomitant with TTFields 1.62 V/cm RMS, 150 kHz, 72 h; FIG. 3", "description": "as §1\n(§3) NSCLC cells A549 were treated for 72 h with TTFields at an intensity of 1.62 V/cm RMS and a frequency of 150 kHz using the Inovitro system. TTFields were applied to the cells in the absence or presence of the Trop2 inhibitor Sacituzumab Govitecan. Treated cells were counted using a flow cytometer, and cytotoxic effect was calculated relative to control cells."}, "[3]": {"tested_on": "A2780 cells", "experiment": "Cytotoxic effect (cell count by flow cytometer), TTFields with or without Sacituzumab Govitecan", "format": "cell-based, human", "settings": "concomitant with TTFields 1.62 V/cm RMS, 200 kHz, 72 h; FIG. 6", "description": "as §1\nas §3, with “Ovarian carcinoma” for “NSCLC”, “A2780” for “A549”, “200” for “150”"}, "[4]": {"tested_on": "A549 cells", "experiment": "Overall effect (cytotoxic x clonogenic effect), TTFields with or without Sacituzumab Govitecan", "format": "cell-based, human", "settings": "concomitant with TTFields 1.62 V/cm RMS, 150 kHz, 72 h; re-plated, grown 7-14 days; FIG. 4", "description": "as §1\nas §2, with “NSCLC” for “Mammary carcinoma”, “A549” for “4T1”"}, "[5]": {"tested_on": "4T1 cells", "experiment": "Cytotoxic effect (cell count by flow cytometer), TTFields with or without Sacituzumab Govitecan", "format": "cell-based, mouse", "settings": "concomitant with TTFields 1.62 V/cm RMS, 150 kHz, 72 h; FIG. 9", "description": "as §1\nas §3, with “Mammary carcinoma” for “NSCLC”, “4T1” for “A549”"}, "[6]": {"tested_on": "A549 cells", "experiment": "Apoptosis, annexin V / 7AAD flow cytometry, TTFields with or without Sacituzumab Govitecan", "format": "cell-based, human", "settings": "concomitant with TTFields 1.62 V/cm RMS, 150 kHz, 72 h, FIG. 5", "description": "Tests were performed on three different cell types: A549, A2780 and 4T1. A549 cells are adenocarcinomec human alveolar basal epithelial cells. A2780 is a human ovarian cancer cell line. 4T1 is a breast cancer cell line derived from the mammary gland tissue of a mouse BALB/c strain. […] NSCLC cells A549 were treated for 72 h with TTFields at an intensity of 1.62 V/cm RMS and a frequency of 150 kHz using the Inovitro system. TTFields were applied to the cells in the absence or presence of the Trop2 inhibitor Sacituzumab Govitecan. Treated cells were double-stained with FITC-conjugated annexin V and 7-aminoactinomycin D (7AAD), and data acquisition was performed using a flow cytometer."}, "[7]": {"tested_on": "4T1 cells", "experiment": "Apoptosis, annexin V / 7AAD flow cytometry, TTFields with or without Sacituzumab Govitecan", "format": "cell-based, mouse", "settings": "concomitant with TTFields 1.62 V/cm RMS, 150 kHz, 72 h, FIG. 11", "description": "Tests were performed on three different cell types: A549, A2780 and 4T1. A549 cells are adenocarcinomec human alveolar basal epithelial cells. A2780 is a human ovarian cancer cell line. 4T1 is a breast cancer cell line derived from the mammary gland tissue of a mouse BALB/c strain. Lastly, like A549 cells (FIGS. 5) and A2780 cells (FIG. 8), concomitant treatment of TTFields with Sacituzumab Govitecan enhanced the apoptotic effect in 4T1 cells (FIG. 11). Mammary carcinoma cells 4T1 were treated for 72 h with TTFields at an intensity of 1.62 V/cm RMS and a frequency of 150 kHz using the Inovitro system. TTFields were applied to the cells in the absence or presence of the Trop2 inhibitor Sacituzumab Govitecan. Treated cells were double-stained with FITC-conjugated annexin V and 7-aminoactinomycin D (7AAD), and data acquisition was performed using a flow cytometer. AnnexinV−7AAD−, live cells; AnnexinV+7AAD−, cells at early apoptosis; AnnexinV+7AAD+, cells at late apoptosis."}, "[8]": {"tested_on": "A2780 cells", "experiment": "Overall effect (cytotoxic x clonogenic effect), TTFields with or without Sacituzumab Govitecan", "format": "cell-based, human", "settings": "concomitant with TTFields 1.62 V/cm RMS, 200 kHz, 72 h; re-plated, grown 7-14 days; FIG. 7", "description": "as §1\nas §2, with “Ovarian” for “Mammary”, “A2780” for “4T1”, “200” for “150”"}, "[9]": {"tested_on": "A2780 cells", "experiment": "Apoptosis, annexin V / 7AAD flow cytometry, TTFields with or without Sacituzumab Govitecan", "format": "cell-based, human", "settings": "concomitant with TTFields 1.62 V/cm RMS, 200 kHz, 72 h, FIG. 8", "description": "Tests were performed on three different cell types: A549, A2780 and 4T1. A549 cells are adenocarcinomec human alveolar basal epithelial cells. A2780 is a human ovarian cancer cell line. 4T1 is a breast cancer cell line derived from the mammary gland tissue of a mouse BALB/c strain. […] Ovarian carcinoma cells A2780 were treated for 72 h with TTFields at an intensity of 1.62 V/cm RMS and a frequency of 200 kHz using the Inovitro system. TTFields were applied to the cells in the absence or presence of the Trop2 inhibitor Sacituzumab Govitecan. Treated cells were double-stained with FITC-conjugated annexin V and 7-aminoactinomycin D (7AAD), and data acquisition was performed using a flow cytometer."}}}
{"substance": "Sacituzumab Govitecan", "values": [{"measurement": "overall effect in 4T1 cells (cytotoxic x clonogenic effects)", "setting": "[1]", "result": "synergistically elevated"}, {"measurement": "A549 cell growth (cytotoxic effect relative to control cells)", "setting": "[2]", "result": "synergistically inhibited"}, {"measurement": "A2780 cell growth (cytotoxic effect relative to control cells)", "setting": "[3]", "result": "synergistically inhibited"}, {"measurement": "overall effect in A549 cells (cytotoxic x clonogenic effects)", "setting": "[4]", "result": "synergistically elevated"}, {"measurement": "4T1 cell growth (cytotoxic effect relative to control cells)", "setting": "[5]", "result": "synergistically inhibited"}, {"measurement": "apoptotic effect in A549 cells", "setting": "[6]", "result": "enhanced"}, {"measurement": "apoptotic effect in 4T1 cells", "setting": "[7]", "result": "enhanced"}, {"measurement": "overall effect in A2780 cells (cytotoxic x clonogenic effects)", "setting": "[8]", "result": "synergistically elevated"}, {"measurement": "apoptotic effect in A2780 cells", "setting": "[9]", "result": "enhanced"}]}
